Patent US20170306002A1 (UNITED STATES OF AMERICA AS REPESENTED BY THE SECRETARY …, published 2017)

Target: NA of A/Bethesda/NIH107-D31/2009 (pH1N1, H275Y) (influenza A virus …)
Assay: cell-based or functional assay

B1: mAb CD6 (whole IgG) (antibody, V domains shown)
VH: QVKLQESGGGLVQPKGSLKLSCAASGFTFNTYAMNWVRQAPGKGLEWVARIRSKSNNYATFYADSVKDRFTISRDDSQSMLYLQMHNLKTDDTAMYYCVRPSIYYYASGYLDVWGAGTTVTVSS
VL: QIVLSQSPAILSASPGEKVTMTCRTSSSVSYMHWYQQKPGSSPKPWIYATSNLASGVPFRFSGSGSGTSYSLTISRVEAEDAATYYCQQWNSNPPTFGGGTKLEIKR
With B1 the “IC50, inhibition of NA activity in ELLA (fetuin substrate)” value was 0.029 µg/mL.
